Experimental data as given in PMC5843284.

How the values were obtained:
[1] = biological target: HIV-1 group M capsid (HIV-1 group M)
[2] = biological target: HIV-1 group M capsid (HIV-1 group M); remark: listed apart in the source

| Substance | fold restriction of single-cycle HIV-1 infection in CRFK cells stably expressing the TRIM fusion, against the negative control [1] [fold] | other results |
| --- | --- | --- |
| red-capped mangabey TRIM-RanCyp | 100 | – |
| chimpanzee TRIM-RanCyp | 100 | – |
| titi monkey TRIM-RanCyp | 100 | – |
| gorilla TRIM-RanCyp | 2 | – |
| marmoset TRIM-RanCyp | 100 | – |
| orangutan TRIM-RanCyp | 100 | – |
| human TRIM-RanCyp with the gorilla residue 75R | – | fold decrease in fold change of restriction of single-cycle HIV-1 infection in CRFK cells stably expressing the TRIM fusion, against human TRIM-RanCyp [2]: 70 fold |
| gorilla TRIM-RanCyp with the human residue 75G | – | fold change of restriction of single-cycle HIV-1 infection in CRFK cells stably expressing the TRIM fusion, against gorilla TRIM-RanCyp [2]: 35 fold |
